Target: receptor of interferon alpha (printed only as 'receptor'), on Daudi cells
Test: cell-based or functional assay

IC50 (pg/mL), inhibition of Daudi cell proliferation: 15.5 pg/mL
Substance: commercially available IFNα (from UniProt P01563 24-188) (ligand)

Reference: patent US8940501
